Test results from article doi:10.1101/2022.02.14.480324.
Where a chain is given by its changes, count along the chain named.

T1: His-OsIRO3 (Oryza sativa (rice), UniProt Q10KL8 1-252)
T1 sequence: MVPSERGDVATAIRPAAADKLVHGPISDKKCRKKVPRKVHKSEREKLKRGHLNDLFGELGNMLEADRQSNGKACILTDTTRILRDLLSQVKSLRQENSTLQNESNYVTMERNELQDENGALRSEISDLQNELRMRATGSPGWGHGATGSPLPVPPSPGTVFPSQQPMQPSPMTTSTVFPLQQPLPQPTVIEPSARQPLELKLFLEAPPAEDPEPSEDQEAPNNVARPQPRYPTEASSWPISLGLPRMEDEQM

B1: pOsFIT probe (dsDNA)
DNA 1: TCAAGTAGTATTAGTCAATTGGTCATCACATTTCG
DNA 2: CGAAATGTGATGACCAATTGACTAATACTACTTGA
B2: pOsIRO2 probe (dsDNA)
DNA 1: CCTCCCTAGCTTGGCAGAATAGTTAATGTTAATCACCTGATTAAA
DNA 2: TTTAATCAGGTGATTAACATTAACTATTCTGCCAAGCTAGGGAGG
B3: pOsIRO2 unlabeled (Cold-Probe) (dsDNA)
DNA 1: B2 DNA 1
DNA 2: B2 DNA 2
B4: mpOsIRO2 (Cold-Probe-m) (dsDNA)
DNA 1: B2 DNA 1 with C34G, A35T
DNA 2: B2 DNA 2 with T11A, G12C

Legend:
His-OsIRO3 [1] = target: T1, His-OsIRO3; experiment: EMSA
His-OsIRO3 [2] = target: T1, His-OsIRO3; experiment: competition
His-OsIRO3 [3] = target: T1, His-OsIRO3; experiment: competition; remark: listed apart in the source

Row | Binder | binding result (His-OsIRO3 [1]) | further results
1 | B1 | no binding | 
2 | B2 | binds | 
3 | B3 |  | binding result (His-OsIRO3 [2]): binds
4 | B4 |  | binding result (His-OsIRO3 [3]): no binding
